This series is described as follows: label from the status in PepcDB records.
For “MEILVVAVGILVDRLTKIWALDKLKKVQDIPIIKNFFDLTYVENRGAAWGIFSGKTLVLSAVTLLVLSAIIVYMIKYRPKSKLARISLSLVISGALGNLYDRVFYKYVVDLFSLHYKDIYYYPVFNVADICVVVGTIMIAIFIVLKDDKKDGKV”, the protein production result is given as “failed”.
With “MLGLLRRLFDNNEREIARYYKQVVEPVNRLEAEVEKLPDLAAAYRELKEKHEKGASLDELLPMAFALTRESAKRYLGMRHFDVQLIGGAVLHEGKIAEMKTGEGKTLVATLAVALNALTGKGVHVVTVNDYLARRDAEWMGPVYRGLGLSVGVIQHASTPAERRKAYLADVTYVTNSELGFDYLRDNMAISPDQLVLRHDHPLHYAIIDEVDSILIDEARTPLIISGPAEKATDLYYKMAEIAKKLERGLPAEPGVRKEPTGDYTVEEKNRSVHLTLQGIAKAEKLLGIEGLFSPENMELAHMLIQAIRAKELYHRDRDYIVQDGQVIIVDEFTGRLMPGRRYGEGLHQAIEAKEGVRIERENQTLATITYQNFFRLYEKRAGMTGTAKTEEKEFQEIYGMDVVVVPTNRPVIRKDFPDVVYRTEKGKFYAVVEEIAEKYERGQPVLVGTISIEKSERLSQMLKEPRLYLPRLEMRLELFKKASQKQQGPEWERLRKLLERPAQLKDEDLAPFEGLIPPKGNLRTAWEGLKRAVHTLAVLRQGIPHQVLNAKHHAREAEIVAQAGRSKTVTIATNMAGRGTDIKLGGNPEYLAAALLEKEGFDRYEWKVELFIKKMVAGKEEEARALAQELGIREELLERIREIREECKQDEERVRALGGLFIIGTERHESRRIDNQLRGRAGRQGDPGGSRFYVSFDDDLMRLFASDRVIAMLDRMGFDDSEPIEHPMVTRSIERAQKRVEDRNFAIRKQLLQFDDVLSRQREVIYAQRRLILLGKDEEVKEAAIGMVEETVASLAENFLNPEVHPEDWDLEGLKATLLDTAPQLQDFPFAELRALKAEEAVERLVEAALKAYEAREAELSPPLMRAVERFVILNVVDNAWKEHLHNLDVLRQGIFLRGYGQKDPFQEYKIEATRLFNEMVAFIKSEVAKFLFRLKVEAEPVRPVREAPYVPVPEAKPEPSEVFGVERKRATPPPQPGLSRAERRRLMRQEKKRKK”, the protein production entry is “not failed”.
With “MDNLFTPSAKSVLVLAQEQAKYFKHQAVGTEHLLLALAIEKNGIANKVLQQYAVSEDDIREEIERFTGYGTLSNVGKDTYLPYSPKAKEILSVAGDEAKRLGANKIGTEHLLLAMLSDESILSSRILMNLNLDLGQTRKVVLRKLG”, the protein production result is recorded as “failed”.
Consider “RIPDIEEVELAEAPADKVLPDGFYVTTNHPTFVRYGGEWLPVEDISMDRVIVIRDGRAYCIPIDEVVRGDRVVVGEKGVRVVPPERPRKSTVFEFMGGRVSSERPTERMIEAIAREIYELKLKGGKIAVVAGPAVDHTSARNALAALIRDGYVDLLLSGNALAVHDIEISIFGTSLGMDICKGRPVPGGNRHHLYTISKVIAAGGIKKAIEKGIIKDGIMYECVKNNVPFILAGSIRDDGPLPEVITDVMVAKKKMKEALRGINMVIMLATMLHSIAVGNLLPSYVKTICVDMNPSTVTKLMDRGTHQAIGVVTDVGLFLPLLYLKIKE”, for which the protein production result is “failed”.
For “MAQSINITELNLPQLEMLKNQLDQEVEFLSTSIAQLKVVQTKYVEAKDCLNVLNKSNEGKELLVPLTSSMYVPGKLHDVEHVLIDVGTGYYVEKTAEDAKDFFKRKIDFLTKQMEKIQPALQEKHAMKQAVMEMMSQKIQQLTALGAAQATVKA”, the protein production result was “failed”.
In the case of “MRLAEGIVIEKEKTFGTLKFSALRREVKIVDDEGNVTEQVKERTFDLKKEQGRMIQVSIPASAGVKNFDYNAEVEIINPIADTVATATFQGADVDWYIKAEDIVLKRPAQNQQADQKQNHDKKLEHHHHHH”, the protein production result was “failed”.
The entry for “MVKKLFILISYGVIAALIYLYGEWLLEWIQQGGARFIFLTVIIATLLALFPIIPYPIIGGVLGAAYGPFLGSAVTWIGSSLASIIMFMFVRYGYQDWGLSLIRRSDLVTKVTAMFEKNAFMAIFITRLIPIIPSIIVNIYSALSRVSFINYSIASSLGKVPSMILFAVVGNSIATNPSQLLWIALFYSSFLLIVWIGYRAWQRVALQKQANI” is “failed”.
On to “MEHASKRDTMAPSGTIPGNGGVNAPSAARVDWVDYAKGICIVMVVMMHSVLGVELAAGETGFMHVAVAFAKPFRMPDFFLISGLFLSLVIDRDWRTYLDRKVVHFAYFYVVWVTIQFGFKAPAFAAETSWREVGLLYLESFIEPFGTLWFIYLLPVFFVVTKLTRRVPPLAIWLIAAALETARIATGWTAIDEFCARFVYFYSGYLFAPYVFALSDRARSHPGPALAALATWALINAGLVAYGASEWKVVSLVLGFAGACAIITMGTLLARAQWLNFFRFCGEHSIVIYLAFFLPMAATRTLLLRTGVIPDIGTVSLIVTIAGVLGSLAIWQAALRLGADFLFERPDAFWIAPKKAGVRLQAAE”, for which the protein production result is recorded as “failed”.

These data come from a protein production outcome set (Wang et al. 2014).
